Reference: patent US20110245167A1

Molecular target: Recombinant human Src expressed in Sf9 insect cells (purified recombinant full-length Src from Upstate Biotechnology) (human) (UniProt P12931)
Experiment: cell-based or functional assay

IC50 of Src inhibition (pY418): 50 nM
Substance: GST-ND1 (amino acid residue 379-435 of pig kidney Na/K-ATPase α1 subunit) (from UniProt P05023 381-439)
